Data from patent US20150359847A1, “METHOD AND COMPOSITION FOR CONFERRING NEUROPROTECTION” (BLOOD SYSTEMS RESEARCH INSTITUTE, priority 2014, published 2015).

Tests used:
hippocampal neurons [1] = experiment: Sholl analysis of isolated hippocampal neurons; format: cell-based, mouse; details: 1 μg/ml TIMP3, 72 hrs
Description: SH-SY5Y cells were obtained from ATCC (Cat# CRL-2266, Manassas, Va.) and were cultured in DMEM and 10% FBS up to passage 10. For differentiation of SH-SY5Y cells into a neuronal phenotype, cells were first plated in DMEEM+10% FBS for 24 hrs before exchanging media in DMEM+1% FBS 10 μM retinoic acid. Differentiation was performed for 3 days before experimentation. Hippocampal neurons were prepared according to the protocol by Beaudoin et al. (Nature Protocols 2012; 7(9):1741-1754) with minor modifications. In brief, after trypsin digestion of hippocampi isolated from P1 mouse pups single cell suspensions was created by trituration and plated onto Biocoat™ poly-D-lysine coated 12-well plates (Cat#354470, BD Biosciences, San Jose, Calif.). 2 pups were used per well and cell suspensions were incubated for 10 minutes per well for a total of 6 wells. The serial incubation allowed for variation in cell densities applicable to different experiments but also contributed to the reduction in non-neuronal cells. […]
Sholl analysis on processed images of isolated hippocampal neurons was conducted using the Fiji derivation of Image J. (Hypertext Transfer Protocol://Fiji.sc.Fiji). […] After neurites had been traced the images were rendered as an analyzed skeleton and Sholl analysis was run on the image from the Analyze menu option.

hippocampal neurons [2] = experiment: Neurite chamber assay (AXIS axon isolation device); format: cell-based, mouse; details: 7 days treatment with TIMP3
Description: For AXIS™ Axon Isolation devices, chambers were first sterilized from one side of the groves to the other under flow gradient with 70% ethanol to avoid trapping air in the groves. Afterwards the slides were completely immersed in 70% ethanol for 5 mins. Upon removing the slide from the ethanol bath, chambers were washed twice with PBS under a flow gradient to flush the chambers, the procedure was then repeated with Poly-D-Lysine. Chambers were then incubated with Poly-D-Lysine overnight at 4° C. Prior to plating cells, chambers were flushed with ‘plating media’ (see tissue culture section). Simultaneous plating of the single cell suspension in both wells on side of the groves enabled equilibrium to be obtained and a sufficient number of cell remained in the chamber adjacent to the groves. Hippocampi from 2 pups were used per chamber. Cells were allowed to attach for 4 hrs before excess cells in the wells were detached using the rubber tip from a sterile 1 ml syringe, plating media removed and ‘maintenance media’ with treatments were added. Flow gradients were maintained throughout the culture steps and media exchanges were performed with this in mind.

[3] = system: NeuN+ve hilar neurons of the dentate gyrus; experiment: NeuN staining of hilar neurons of the dentate gyrus 7 days post-TBI; format: in vivo, mouse
Text: (§1) The mouse controlled cortical impact (CCI) injury model was used as previously described. In brief, mice were anesthetized with 5% isoflurane and 1:1 O2:N2 mixture. Animals were mounted on a stereotaxic frame and were secured by ear bars and an incisor bar. Anesthesia was maintained with 2.0% isoflurane and 1:1 O2:N2 mixture. A 5-mm-diameter craniotomy was made midway between bregma and lambda on the right side, with the medial edge of the craniotomy 1 mm lateral to midline. Injury was produced using a magnetic impactor mounted at an angle of 110° from the vertical plane. A single impact at a velocity of 4+/−0.2 m/s was used inflict a moderate to severe injury (1.2-1.3 mm impact depth). After injury, the incision was closed. Sham animals underwent identical surgeries except for impact injury. Core body temperature was monitored using a rectal thermometer and maintained at 36.8° C.-37.2° C. with a heating pad throughout the procedure. For treatments, TIMP3 (60.0 μg/kg) or vehicle control (PBS) administration was performed at 2, 24, and 48 hrs after injury via tail vein injections in a total volume of 125 μl. Animal research was performed with approval of the Institutional Animal Care and Use Committee at ISIS Services LLC (San Carlos, Calif., USA). […]

MMP-9 = MMP-9 (Homo sapiens, UniProt P14780); experiment: SensoLyte Fluorimetric MMP-9 Activity Assay; format: biochemical; details: dose response; 1 μg/ml TIMP3
Text: SensoLyte Fluorimetric MMP-2 Activity Assay Kit™ (Cat#71151) and SensoLyte Fluorimetric MMP-9 Activity Assay Kit™ (Cat#71155) were purchased from AnaSpec (Fremont, Calif.) and performed per manufacturer's instructions.

[4] = system: DCX+ve neurons in the subgranule zone of the dentate gyrus; details: 7 days post-TBI
Text: as §1

MMP-9, sequence (P14780 94-707, species assumed): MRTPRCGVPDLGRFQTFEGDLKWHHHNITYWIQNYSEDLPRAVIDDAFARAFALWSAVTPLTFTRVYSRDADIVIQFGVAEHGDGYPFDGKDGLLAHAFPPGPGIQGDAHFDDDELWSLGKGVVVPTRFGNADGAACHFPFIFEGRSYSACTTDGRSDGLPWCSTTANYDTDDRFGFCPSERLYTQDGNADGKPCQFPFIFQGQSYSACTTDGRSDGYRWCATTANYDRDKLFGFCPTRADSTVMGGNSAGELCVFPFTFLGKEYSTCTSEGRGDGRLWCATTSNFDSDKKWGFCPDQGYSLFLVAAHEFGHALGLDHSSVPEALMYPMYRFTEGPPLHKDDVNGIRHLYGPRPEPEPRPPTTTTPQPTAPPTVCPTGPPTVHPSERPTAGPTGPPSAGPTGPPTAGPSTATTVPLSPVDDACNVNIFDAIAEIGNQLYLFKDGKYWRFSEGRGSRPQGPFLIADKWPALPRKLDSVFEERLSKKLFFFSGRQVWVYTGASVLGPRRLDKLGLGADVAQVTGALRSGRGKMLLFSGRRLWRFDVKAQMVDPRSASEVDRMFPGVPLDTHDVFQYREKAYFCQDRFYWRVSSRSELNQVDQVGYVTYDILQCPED

B1: TIMP3: Recombinant tissue inhibitor of matrix metalloproteinase-3, a soluble protein released by MSCs, obtained from Amgen Inc. (protein)
chain: CTCSPSHPQDAFCNSDIVIRAKVVGKKLVKEGPFGTLVYTIKQMKMYRGFTKMPHVQYIHTEASESLCGLKLEVNKYQYLLTGRVYDGKMYTGLCNFVERWDQLTLSQRKGLNYRYHLGCNCKIKSCYYLPCFVTSKNECLWTDMLSNFGYPGYQSKHYACIRQKGGYCSWYRGWAPPDKSIINATDP
For B1, the “neurite complexity (Sholl analysis)” value (hippocampal neurons [1]) was “significantly increased neurite complexity”, the “neurite outgrowth in neurite chamber” value (hippocampal neurons [2]) was “increased neurite outgrowth” and the “NeuN staining, contralateral side” value [3] was “no significant differences on the contralateral side”. For the same molecule, the “NeuN+ve neurons in the hilus, ipsilateral” value ([3]; IV TIMP3 vs TBI) was “significantly attenuated the loss of NeuN+ve cells”, the “MMP-9 inhibition (Sensolyte FRET assay)” value (MMP-9) was “can fully inhibit” and the “DCX staining, contralateral side” value [4] was “no significant differences on the contralateral side”. The “DCX+ve neurons, ipsilateral” value ([4]; IV TIMP3 vs TBI) was “significantly attenuated”.
